This is an account of results in paper PMC10368638, “Differential CaKAN3-CaHSF8 associations underlie distinct immune and heat responses under high temperature and high humidity conditions”.

In the series the target is CaKAN3-GST (Capsicum annuum? (pepper), UniProt A0A2G2Z1N1 1-250). Put plainly: EMSA; EMSA: 20 uL; 5x binding buffer printed as 1 M Tris-HCl pH 7.5, 5 M NaCl, 1 M KCl, 1 M MgCl2, 0.5 M EDTA pH 8.0, 10 mg/mL BSA (apparently stock concentrations). The conditions noted are these: protein: recombinant; tags: GST (pDEST-15); label: Cy5; blunt. (In EMSA bound probe runs differently from free probe, usually more slowly.)
CaKAN3-GST, sequence (A0A2G2Z1N1 entry or part of it): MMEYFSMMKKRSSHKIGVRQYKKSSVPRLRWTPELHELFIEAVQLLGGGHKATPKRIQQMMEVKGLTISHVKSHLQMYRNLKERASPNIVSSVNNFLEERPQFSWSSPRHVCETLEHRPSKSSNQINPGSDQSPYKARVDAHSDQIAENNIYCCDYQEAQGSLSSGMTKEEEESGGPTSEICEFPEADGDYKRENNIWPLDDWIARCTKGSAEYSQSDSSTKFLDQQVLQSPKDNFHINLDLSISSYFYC

B1: 3x AACAA probe (dsDNA)
DNA 1: AACAAAACAAAACAA
DNA 2: TTGTTTTGTTTTGTT
For B1, the binding result is “binds”.

B2: 3x AACAAm probe (3xAAAAA) (dsDNA)
DNA 1: AAAAAAAAAAAAAAA
DNA 2: TTTTTTTTTTTTTTT
Turning to B2, the binding result is “no binding”.
